Test results: article PMC12041195 (Nature Communications, 2025)

Target: trimeric HA protein of A/Victoria/361/2011 (H3N2) (Influenza A virus A/Victoria/361/2011 …, UniProt A0A097PF39, strain)
Experiment: negative-stain electron microscopy

B1: IgM-F045-092 (antibody, V domains shown)
VH: EVQLVESGAEVKKPGSSVKVSCRASGTFYKYAINWVRQAPGQGLEWMGGIIPFFGTTNYAQKFQGRLTITADGSTNTAYMQLDSLRSEDTAVYYCAGPSITESHYCLDCAAKDYYYGLDVWGQGTTVTVSS
VL: not shown
  binding result: binds
